Experimental data from the supplement of paper PMC9112550, “Optimization of the antimicrobial peptide Bac7 by deep mutational scanning” (BMC Biology, 2022).

Test system: Escherichia coli TOP10
Assay: shrunken log2 fold change of peptide-encoding DNA abundance (4.5 h post-induction vs induction); higher = less antimicrobial activity (less host growth inhibition)
Details: time post-induction: 4.5 h; library: site-saturation at positions 5, 18, 19, 20
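Note: peptides expressed intracellularly from a pBAD plasmid library in pooled LB shake-flask culture, induced with 0.3% L-arabinose, DNA abundance read by NGS, three biological replicates, DESeq2 with apeglm shrinkage.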

Row | Sequence | shrunken log2 fold change
1 | RRIRMRPPRLPRPRPRPGPQPRP | 1.21
2 | RRIRMRPPRLPRPRPRPGQVPRP | 0.418
3 | RRIRMRPPRLPRPRPRPGREPRP | 1.02
4 | RRIRMRPPRLPRPRPRPGRPPRP | 0.383
5 | RRIRMRPPRLPRPRPRPGSCPRP | 0.29
6 | RRIRMRPPRLPRPRPRPGSSPRP | 0.198
7 | RRIRMRPPRLPRPRPRPGTTPRP | 1.24
8 | RRIRMRPPRLPRPRPRPHAFPRP | 0.179
9 | RRIRMRPPRLPRPRPRPHAIPRP | 0.224
10 | RRIRMRPPRLPRPRPRPHCCPRP | -0.0266
11 | RRIRMRPPRLPRPRPRPHDRPRP | 0.0623
12 | RRIRMRPPRLPRPRPRPHDSPRP | -0.0393
13 | RRIRMRPPRLPRPRPRPHECPRP | 0.0178
14 | RRIRMRPPRLPRPRPRPHEHPRP | 0.301
15 | RRIRMRPPRLPRPRPRPHFAPRP | 0.194
16 | RRIRMRPPRLPRPRPRPHFSPRP | -0.194
17 | RRIRMRPPRLPRPRPRPHHVPRP | -0.143
18 | RRIRMRPPRLPRPRPRPHIGPRP | -0.00118
19 | RRIRMRPPRLPRPRPRPHKLPRP | -0.0702
20 | RRIRMRPPRLPRPRPRPHKQPRP | 0.0796
21 | RRIRMRPPRLPRPRPRPHLGPRP | 0.086
22 | RRIRMRPPRLPRPRPRPHMKPRP | -0.158
23 | RRIRMRPPRLPRPRPRPHNGPRP | -0.337
24 | RRIRMRPPRLPRPRPRPHPEPRP | 0.414
25 | RRIRMRPPRLPRPRPRPHSAPRP | 0.283

Row | Sequence | shrunken log2 fold change
26 | RRIRMRPPRLPRPRPRPHSIPRP | 0.0955
27 | RRIRMRPPRLPRPRPRPHSLPRP | -0.0589
28 | RRIRMRPPRLPRPRPRPHVCPRP | -0.107
29 | RRIRMRPPRLPRPRPRPHVNPRP | -0.132
30 | RRIRMRPPRLPRPRPRPHVWPRP | 0.281
31 | RRIRMRPPRLPRPRPRPHWAPRP | 0.00824
32 | RRIRMRPPRLPRPRPRPHWWPRP | 0.325
33 | RRIRMRPPRLPRPRPRPHYEPRP | -0.0284
34 | RRIRMRPPRLPRPRPRPICNPRP | -0.0126
35 | RRIRMRPPRLPRPRPRPIDSPRP | 0.165
36 | RRIRMRPPRLPRPRPRPIEDPRP | 0.224
37 | RRIRMRPPRLPRPRPRPIEKPRP | -0.00199
38 | RRIRMRPPRLPRPRPRPIELPRP | -0.04
39 | RRIRMRPPRLPRPRPRPIFIPRP | 2.07
40 | RRIRMRPPRLPRPRPRPIFPPRP | 0.229
41 | RRIRMRPPRLPRPRPRPIHRPRP | -0.154
42 | RRIRMRPPRLPRPRPRPIHTPRP | -0.0437
43 | RRIRMRPPRLPRPRPRPIICPRP | -0.00127
44 | RRIRMRPPRLPRPRPRPIKPPRP | -0.231
45 | RRIRMRPPRLPRPRPRPIKWPRP | -0.00876
46 | RRIRMRPPRLPRPRPRPILDPRP | -0.0606
47 | RRIRMRPPRLPRPRPRPILFPRP | -0.385
48 | RRIRMRPPRLPRPRPRPILLPRP | -0.0378
49 | RRIRMRPPRLPRPRPRPILRPRP | 0.00958
50 | RRIRMRPPRLPRPRPRPIRPPRP | -0.127

Row | Sequence | shrunken log2 fold change
51 | RRIRMRPPRLPRPRPRPISFPRP | -0.496
52 | RRIRMRPPRLPRPRPRPISGPRP | 0.0247
53 | RRIRMRPPRLPRPRPRPIVRPRP | -0.0408
54 | RRIRMRPPRLPRPRPRPIWVPRP | -0.0406
55 | RRIRMRPPRLPRPRPRPKAFPRP | 0.0392
56 | RRIRMRPPRLPRPRPRPKCEPRP | 0.52
57 | RRIRMRPPRLPRPRPRPKCPPRP | 0.108
58 | RRIRMRPPRLPRPRPRPKEIPRP | 0.38
59 | RRIRMRPPRLPRPRPRPKFEPRP | 0.109
60 | RRIRMRPPRLPRPRPRPKFFPRP | 0.0606
61 | RRIRMRPPRLPRPRPRPKFPPRP | 0.455
62 | RRIRMRPPRLPRPRPRPKGYPRP | -0.0135
63 | RRIRMRPPRLPRPRPRPKHDPRP | 0.43
64 | RRIRMRPPRLPRPRPRPKIDPRP | 0.285
65 | RRIRMRPPRLPRPRPRPKIGPRP | -0.0597
66 | RRIRMRPPRLPRPRPRPKMTPRP | 2.7
67 | RRIRMRPPRLPRPRPRPKMYPRP | 0.0587
68 | RRIRMRPPRLPRPRPRPKNEPRP | 0.881
69 | RRIRMRPPRLPRPRPRPKNNPRP | 0.311
70 | RRIRMRPPRLPRPRPRPKPNPRP | 0.954
71 | RRIRMRPPRLPRPRPRPKPSPRP | 1.4
72 | RRIRMRPPRLPRPRPRPKPYPRP | 0.314
73 | RRIRMRPPRLPRPRPRPKQEPRP | 3.07
74 | RRIRMRPPRLPRPRPRPKQMPRP | 1.25
75 | RRIRMRPPRLPRPRPRPKRKPRP | 2.32

Row | Sequence | shrunken log2 fold change
76 | RRIRMRPPRLPRPRPRPKRRPRP | 1.02
77 | RRIRMRPPRLPRPRPRPKSHPRP | -0.0378
78 | RRIRMRPPRLPRPRPRPKSKPRP | 0.566
79 | RRIRMRPPRLPRPRPRPKVKPRP | 0.614
80 | RRIRMRPPRLPRPRPRPKVYPRP | 0.0391
81 | RRIRMRPPRLPRPRPRPKWNPRP | 0.523
82 | RRIRMRPPRLPRPRPRPKYLPRP | -0.278
83 | RRIRMRPPRLPRPRPRPLAHPRP | 0.0417
84 | RRIRMRPPRLPRPRPRPLCQPRP | 0.0549
85 | RRIRMRPPRLPRPRPRPLCTPRP | 1.19
86 | RRIRMRPPRLPRPRPRPLDMPRP | 0.167
87 | RRIRMRPPRLPRPRPRPLFFPRP | 0.135
88 | RRIRMRPPRLPRPRPRPLFRPRP | 1.44
89 | RRIRMRPPRLPRPRPRPLFVPRP | 0.286
90 | RRIRMRPPRLPRPRPRPLGFPRP | 0.772
91 | RRIRMRPPRLPRPRPRPLGTPRP | 1.31
92 | RRIRMRPPRLPRPRPRPLHRPRP | 0.304
93 | RRIRMRPPRLPRPRPRPLHTPRP | 2.66
94 | RRIRMRPPRLPRPRPRPLICPRP | 0.108
95 | RRIRMRPPRLPRPRPRPLILPRP | -0.429
96 | RRIRMRPPRLPRPRPRPLIMPRP | -0.0525
97 | RRIRMRPPRLPRPRPRPLKSPRP | 0.11
98 | RRIRMRPPRLPRPRPRPLLCPRP | 0.473
99 | RRIRMRPPRLPRPRPRPLMGPRP | -0.0985
100 | RRIRMRPPRLPRPRPRPLMLPRP | -0.0158

Row | Sequence | shrunken log2 fold change
101 | RRIRMRPPRLPRPRPRPLMMPRP | 0.452
102 | RRIRMRPPRLPRPRPRPLMTPRP | 1.3
103 | RRIRMRPPRLPRPRPRPLNQPRP | -0.0442
104 | RRIRMRPPRLPRPRPRPLPFPRP | -0.117
105 | RRIRMRPPRLPRPRPRPLPNPRP | 0.098
106 | RRIRMRPPRLPRPRPRPLRWPRP | 1.32
107 | RRIRMRPPRLPRPRPRPLRYPRP | 0.856
108 | RRIRMRPPRLPRPRPRPLSSPRP | -0.0576
109 | RRIRMRPPRLPRPRPRPLVCPRP | 0.368
110 | RRIRMRPPRLPRPRPRPLYTPRP | -0.116
111 | RRIRMRPPRLPRPRPRPMADPRP | 1.11
112 | RRIRMRPPRLPRPRPRPMARPRP | 0.465
113 | RRIRMRPPRLPRPRPRPMCDPRP | 0.709
114 | RRIRMRPPRLPRPRPRPMDKPRP | 0.3
115 | RRIRMRPPRLPRPRPRPMDRPRP | -0.0181
116 | RRIRMRPPRLPRPRPRPMGAPRP | 1.18
117 | RRIRMRPPRLPRPRPRPMGCPRP | 0.0612
118 | RRIRMRPPRLPRPRPRPMGPPRP | 0.168
119 | RRIRMRPPRLPRPRPRPMHCPRP | 0.0428
120 | RRIRMRPPRLPRPRPRPMHVPRP | -0.207
121 | RRIRMRPPRLPRPRPRPMIWPRP | 0.237
122 | RRIRMRPPRLPRPRPRPMLHPRP | 0.0756
123 | RRIRMRPPRLPRPRPRPMLWPRP | 0.19
124 | RRIRMRPPRLPRPRPRPMNFPRP | 0.032
125 | RRIRMRPPRLPRPRPRPMPKPRP | 0.0834

Row | Sequence | shrunken log2 fold change
126 | RRIRMRPPRLPRPRPRPMQIPRP | 0.0553
127 | RRIRMRPPRLPRPRPRPMTAPRP | 0.198
128 | RRIRMRPPRLPRPRPRPMVKPRP | 0.0401
129 | RRIRMRPPRLPRPRPRPNCPPRP | -0.0204
130 | RRIRMRPPRLPRPRPRPNCVPRP | -0.00674
131 | RRIRMRPPRLPRPRPRPNETPRP | -0.0123
132 | RRIRMRPPRLPRPRPRPNFYPRP | -0.00797
133 | RRIRMRPPRLPRPRPRPNGLPRP | 0.062
134 | RRIRMRPPRLPRPRPRPNGSPRP | -0.000925
135 | RRIRMRPPRLPRPRPRPNHKPRP | -0.391
136 | RRIRMRPPRLPRPRPRPNKSPRP | 0.0117
137 | RRIRMRPPRLPRPRPRPNLIPRP | -0.0317
138 | RRIRMRPPRLPRPRPRPNLLPRP | -0.103
139 | RRIRMRPPRLPRPRPRPNLWPRP | 0.119
140 | RRIRMRPPRLPRPRPRPNLYPRP | -0.00588
141 | RRIRMRPPRLPRPRPRPNNYPRP | 0.0147
142 | RRIRMRPPRLPRPRPRPNPCPRP | 0.169
143 | RRIRMRPPRLPRPRPRPNPNPRP | 0.394
144 | RRIRMRPPRLPRPRPRPNQGPRP | -0.0312
145 | RRIRMRPPRLPRPRPRPNRCPRP | 0.172
146 | RRIRMRPPRLPRPRPRPNRWPRP | 0.394
147 | RRIRMRPPRLPRPRPRPNTHPRP | 0.136
148 | RRIRMRPPRLPRPRPRPNVTPRP | 0.0238
149 | RRIRMRPPRLPRPRPRPNWKPRP | -0.0351
150 | RRIRMRPPRLPRPRPRPNYLPRP | -0.212
